Measured values published in US20220306758A1 (Regeneron, published 2022).
Residue numbers refer to the chain shown, from its start.

T1: human BCMA on cells (endogenous, on multiple myeloma and lymphoma cell lines) (human, UniProt Q02223 1-184)
T1 sequence: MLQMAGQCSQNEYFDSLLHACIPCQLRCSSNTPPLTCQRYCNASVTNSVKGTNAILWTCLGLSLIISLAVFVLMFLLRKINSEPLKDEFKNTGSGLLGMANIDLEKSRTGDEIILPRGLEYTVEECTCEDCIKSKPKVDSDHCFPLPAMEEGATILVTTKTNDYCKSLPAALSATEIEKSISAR

T2: human BCMA-MFC (extracellular domain of human BCMA with C-terminal mFc tag) (human)
T2 construct: also called hBCMA.mFc
T2 chain: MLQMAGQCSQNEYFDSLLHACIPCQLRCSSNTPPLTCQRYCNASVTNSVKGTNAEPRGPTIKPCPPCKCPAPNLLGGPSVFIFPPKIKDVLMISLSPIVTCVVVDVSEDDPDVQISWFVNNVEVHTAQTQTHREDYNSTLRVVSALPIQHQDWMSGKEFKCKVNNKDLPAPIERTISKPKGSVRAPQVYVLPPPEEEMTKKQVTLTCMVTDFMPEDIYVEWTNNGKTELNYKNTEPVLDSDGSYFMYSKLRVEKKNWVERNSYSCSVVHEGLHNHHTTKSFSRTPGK

T3: mouse BCMA-MFC (BCMA with C-terminal mFc tag) (mouse)
T3 construct: Tested at 30 nM only
T3 chain: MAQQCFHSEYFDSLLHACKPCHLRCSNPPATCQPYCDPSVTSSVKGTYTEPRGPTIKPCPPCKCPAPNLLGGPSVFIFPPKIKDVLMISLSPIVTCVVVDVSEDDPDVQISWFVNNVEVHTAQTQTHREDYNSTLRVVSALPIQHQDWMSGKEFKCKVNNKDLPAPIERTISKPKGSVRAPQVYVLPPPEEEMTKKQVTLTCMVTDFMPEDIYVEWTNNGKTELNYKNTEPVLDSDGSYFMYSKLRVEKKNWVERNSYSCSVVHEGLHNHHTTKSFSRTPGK

T4: human BCMA-MMH (extracellular domain of human BCMA with C-terminal myc-myc-hexahistidine tag) (human)
T4 construct: Monomeric antigen; the entry holds the ectodomain and the myc-myc-His tag; also called hBCMA.mmh; hBCMA.mmH
T4 chain: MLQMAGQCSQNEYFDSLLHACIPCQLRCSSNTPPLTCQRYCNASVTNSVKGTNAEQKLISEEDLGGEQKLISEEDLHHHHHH

B1: mAb16747 (REGN4515) (antibody, V domains shown)
VH: QVQLVESGGGLVKPGGSLRLSCAASGFTFSDYYISWIRQAPGKGLEWVSYISSSGSSIKYADSVKGRFTISRDNAKNSLYLQMNSLRAEDTAVYYCAREGGNYGMDVWGQGTTVTVSS
VL: DIQMTQSPSSVSASVGDRVTITCRASQGINNWLVWYQQKPGKAPKLLIYAATSLQSGVPSRFSGSGSGTDFTLTISSLQPEDFATYYCQQANSFPPTFGQGTKLEIK
notes: Anti-BCMA monoclonal antibody; human Fc (captured by anti-human Fc)
B2: mAb16732 (REGN4514) (antibody, V domains shown)
VH: EVQLVESGGGLVQPGRSLRLSCAASGFTFDDYAMHWVRQAPGKGLEWVSGISWNSGNMGYADSVKGRFTISRDNAKNSLFLQMHSLRAEDTAFYYCAKVRLTAFDFWGQGTLVTVSS
VL: DIQMTQSPSSLSASVGDRVTITCRTSQSIGNYLNWFQQKPGKAPKLLIYTASSLQNGVPSRFTGSGSGTDFTLTISSLQPEDFVIYYCQQSFSTPYTFGQGTKLEIK
notes: as for B1
B3: mAb16711 (antibody, V domains shown)
VH: QVQLVESGGGVVQPGRSLRLSCAASGFTFSTYGIHWVRQAPGKGLEWVAVILHDGSSNYYAESVKGRFIISRDNSKNTLYLQMNSLRAEDTALYYCTKRYSEAAGPNWFDPWGQGTLVTVSS
VL: DIQMTQSPSSVSASVGDRVTITCRASRGISSWLAWYQQKPGKAPKLLIHAASSLQSGVPSRFSGSGSGTDFTLTISSLQPEDFATYYCQQAISFPFTFGPGTKVDIK
notes: as for B1
B4: mAb16716 (antibody, V domains shown)
VH: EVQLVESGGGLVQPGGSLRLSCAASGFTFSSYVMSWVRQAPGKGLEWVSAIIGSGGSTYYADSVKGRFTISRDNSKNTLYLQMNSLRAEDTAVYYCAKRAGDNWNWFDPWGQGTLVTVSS
VL: B3 VL with V15L, R27Q, Q38R, H49Y, T69A, I92K, F94V
notes: as for B1
B5: mAb21581, bivalent anti-BCMA antibody (parent of REGN5458) (antibody, V domains shown)
VH: EVQLVESGGGLVQPGGSLRLSCAASGFTFSNFWMTWVRQAPGKGLEWVANMNQDGSEKYYVDSVKGRFTISRDNAKSSLYLQMNSLRAEDTAVYYCARDREYCISTSCYDDFDYWGQGTLVTVSS
VL: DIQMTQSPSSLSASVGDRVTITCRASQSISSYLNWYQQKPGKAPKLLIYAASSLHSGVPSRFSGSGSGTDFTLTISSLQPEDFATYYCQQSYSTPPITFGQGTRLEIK

Legend:
[1] = target: T1, human BCMA on cells (endogenous, on …); experiment: cell-based or functional assay
[2] = target: T2, human BCMA-MFC (extracellular domain of …); experiment: SPR, Biacore, mAb captured by anti-hFc, 25 C
Protocol: (§1) The CM5 Biacore sensor surface was derivatized by amine coupling with a monoclonal mouse anti-human Fc antibody (GE, #BR-1008-39) to capture purified anti-BCMA mAbs and anti-BCMA×anti-CD3 bispecific mAbs. All Biacore binding studies were performed in a buffer composed of 0.01M HEPES pH 7.4, 0.15M NaCl, 3 mM EDTA, 0.05% v/v Surfactant P20 (HBS-ET running buffer). […] Antigen samples were then injected over the anti-BCMA and anti-BCMA×anti-CD3 bispecific mAbs captured surfaces at a flow rate of 30 μL/minute. Antibody-reagent association was monitored for 5 minutes while dissociation in HBS-ET running buffer was monitored for 10 minutes. All of the binding kinetics experiments were performed at 25° C. Kinetic association (kₐ) and dissociation (kd) rate constants were determined by fitting the real-time sensorgrams to a 1:1 binding model using Scrubber 2.0c curve fitting software. Binding dissociation equilibrium constants (KD) and dissociative half-lives (t½) were calculated from the kinetic rate constants as: […]

[3] = target: T5, monkey BCMA-MFC (monkey BCMA with C-terminal mFc tag) (monkey); experiment: SPR, Biacore, mAb captured by anti-hFc, 25 C
T5 construct: also called mfBCMA.mFc
Protocol: as §1

[4] = target: T3, mouse BCMA-MFC (BCMA with C-terminal …); experiment: SPR, Biacore, mAb captured by anti-hFc, 25 C
Protocol: as §1

[5] = target: T4, human BCMA-MMH (extracellular domain of …); experiment: SPR, Biacore, mAb captured by anti-hFc, 25 C
Protocol: as §1

[6] = target: T1, human BCMA on cells (endogenous, on …); experiment: cell-based or functional assay; remark: listed apart in the source
[7] = target: T1, human BCMA on cells (endogenous, on …); experiment: cell-based or functional assay; remark: listed apart in the source
[8] = target: T6, monkey BCMA-MMH (monkey BCMA with C-terminal myc-myc-hexahistidine tag) (monkey); experiment: SPR, Biacore, mAb captured by anti-hFc, 25 C
T6 construct: The words 'extracellular domain' stand before human BCMA in the sentence and are read as applying to the monkey construct too; also called mfBCMA.mmh
Protocol: as §1

[9] = target: T1, human BCMA on cells (endogenous, on …); experiment: cell-based or functional assay; remark: listed apart in the source

Binder	MFI fold change over cells incubated in media only, Molp8, 18 h with 67 nM antibody, then stained with the same antibody [1] [fold]	MFI fold change over cells incubated in media only, Molp8, 18 h with 667 nM antibody, then stained with the same antibody [1] [fold]	30 nM hBCMA.mFc Bind (RU) [2] [RU]	Kd [2] [nM]	koff [2] [s⁻¹]	kon [2] [M⁻¹ s⁻¹]	t½ [2] [min]	30 nM mfBCMA.mFc Bind (RU) [3] [RU]	30 nM mfBCMA.mFc Bind (RU) (mouse BCMA-MFC by the table's title) [4]	Kd [4] [nM]	koff [4] [s⁻¹]	kon [4] [M⁻¹ s⁻¹]	t½ [4] [min]	90 nM hBCMA.mmh Bind (RU) [5] [RU]	Kd [5] [nM]	koff [5] [s⁻¹]	kon [5] [M⁻¹ s⁻¹]	t½ [5] [min]	MFI fold change over cells incubated in media only, NCI-H929, 18 h with 67 nM antibody, then stained with the same antibody [6] [fold]	MFI fold change over cells incubated in media only, NCI-H929, 18 h with 667 nM antibody, then stained with the same antibody [6] [fold]	further results
B1	2.2	0.6	146	0.0633	8.95e-05	1.41e+06	129	101	108	4.42	0.00418	947000	2.8	31.4	2.84	0.00247	869000	4.7	1.8	2.1	Kd [3]: 3.37 nM; koff [3]: 0.00716 s⁻¹; kon [3]: 2.13e+06 M⁻¹ s⁻¹; t½ [3]: 1.6 min; MFI fold change over cells incubated in media only, U266, 18 h with 67 nM antibody, then stained with the same antibody [7]: 1.5 fold; MFI fold change over cells incubated in media only, U266, 18 h with 667 nM antibody, then stained with the same antibody [7]: 1.7 fold
B2			124	0.0422	4.53e-05	1.07e+06	255	40.3	110	0.677	0.000269	397000	43	25.3	2.69	0.00285	1.06e+06	4.1			Kd [3]: 14.7 nM; koff [3]: 0.00724 s⁻¹; kon [3]: 492000 M⁻¹ s⁻¹; t½ [3]: 1.6 min
B3	3.5	3	114	0.103	0.00019	1.85e+06	60.8	0.9	90	1.02	0.0011	1.07e+06	10.5	22.2	1.73	0.00347	2.01e+06	3.3	2.8	2.1	binding result [3]: no binding (tested: 30 nM); 90 nM mfBCMA.mmh Bind (RU) [8]: -0.5 RU; MFI fold change over cells incubated in media only, U266, 18 h with 67 nM antibody, then stained with the same antibody [7]: 2.2 fold; MFI fold change over cells incubated in media only, U266, 18 h with 667 nM antibody, then stained with the same antibody [7]: 2.2 fold
B4			120	0.0968	8.35e-05	862000	138		33.4	18.8	0.00385	205000	3	26.4	3.56	0.00299	841000	3.9			90 nM mfBCMA.mmh Bind (RU) [8]: 0.8 RU; binding result [8]: no binding (tested: 90 nM)
B5	2.3	3.7																	1.2	1.4	MFI fold change over cells incubated in media only, MM1S, 18 h with 67 nM antibody, then stained with the same antibody [9]: 7.3 fold; MFI fold change over cells incubated in media only, MM1S, 18 h with 667 nM antibody, then stained with the same antibody [9]: 7 fold; MFI fold change over cells incubated in media only, U266, 18 h with 67 nM antibody, then stained with the same antibody [7]: 1.8 fold; MFI fold change over cells incubated in media only, U266, 18 h with 667 nM antibody, then stained with the same antibody [7]: 2.3 fold
